These results are taken from patent US20140274766A1, “METHODS OF USING F-SPONDIN AS A BIOMARKER FOR CARTILAGE DEGENERATIVE CONDITIONS AND BONE DISEASES” (priority 2009, published 2014).

For assay [1], the system named is chondrocytes in monolayer culture. The assay is described as follows: F-spondin effects on genes/gene products, preliminary experiments with chondrocytes in monolayer culture. Further details: key to TNFα regulation / IL-1β regulation / AGC1 regulation / PGE2 regulation / MMP-13 regulation / TGF-β regulation / BMP-2 regulation / MMP-1 regulation / IL-8 regulation / IL-6 regulation / COL2A1 regulation: F-spondin-mediated upregulation*; downregulation**. In kind it is cell-based, human. On the procedure:
F-spondin induced both catabolic and anabolic gene/gene products in chondrocytes including BMP-2, type II collagen, TGF-β1, COX-2, mPGES and PGE2. To begin to address the question of whether selected F-spondin effects in cartilage are mediated by prostaglandin production, we have begun studies to characterize the effect of PGE2 in cartilage. Addition of PGE2 (1-10 uM) to cartilage explants inhibited type II collagen, aggrecan expression, ^35SO4 incorporation, as well as increased type II collagen degradation as assessed by C12C ELISA (IBEX). […] Relative to normals, NURR1 was overexpressed in OA cartilage (2-5 fold) and synovium (2 fold), confirmed by QPCR. Incubation of OA chondrocytes with PGE2 (1-10 uM) induced NURR1 expression (20-50 fold), as analyzed by QPCR. Since NURR1 binds to the NURR1 cis-acting sequence (NBRE) in the promoter region of a variety of genes, we examined the effect of adenoviral-mediated over-expression of NURR1 in chondrocytes.
For initial experiments, chondrocytes isolated from OA knee joints will be used, building from our previous observations using monolayer cultures of these cells (Attur M G, Dave M, Cipolletta C, Kang P, Goldring M B, Patel I R, et al. Reversal of autocrine and paracrine effects of interleukin 1 (IL-1) in human arthritis by type II IL-1 decoy receptor. Potential for pharmacological intervention. J Biol Chem 2000; 275(51):40307-15). However, because OA chondrocytes endogenously express F-spondin, at least initially, there is a potential for a masking effect between control and F-spondin-transduced cultures. To address this, experiments will also be performed in both “normal” chondrocytes isolated from non-arthritic cartilage (obtained from NDRI, Philadelphia) and immortalized C28I2 chondrocytes, where endogenous F-spondin expression is low and absent, respectively (unpublished data). Using this experimental culture system, we expect similar metabolic responses among chondrocyte sources, however if variation between sources is observed, to F-spondin either with or without IL-1, they will be noted and investigated further. For each group and time point, alginate cultures and conditioned cell culture media supernatants will be analyzed by quantitative PCR, ELISA and biochemical assays for molecular markers associated with cartilage anabolism and catabolism. Based on our preliminary findings with F-spondin and IL-1 treatment of monolayer chondrocytes, we predict that at least some of these molecules will be modulated in alginate cultures.

For assay [2], the system named is chick chondrocytes. The assay is described as follows: Alkaline phosphatase (AP) activity in RA-stimulated chick chondrocyte cultures. The format is cell-based. Particulars: F-Spondin 1 ug/ml with RA, 3 days. On the procedure:
FIG. 16. Inhibition of F-spondin decreases AP activity in RA stimulated cultures. Chick chondrocytes were treated with RA at 100 nm for 5 days with and without F-spondin antibodies and AP activity assessed. Antibodies with specificities to the spondin domain (medium grey) and TSR domain (black) inhibited AP activity compared to ctrl (noAb) (light grey). Note the greater inhibitory effect of the TSR domain antibody. * p=<0.05 versus no ab ctrl.
FIG. 17. The pro-maturation effect of F-spondin is not inhibited following neutralization of TGF-β activity by coculture with Latency Associated Peptide (LAP). AP activity was determined in chick chondrocyte cultures by ELISA following RA stimulation for 3 days. Cultures were either ctrl (RA only) or RA with either F-Spondin (1 ug/ml) or LAP (10 or 100 ng/ml), or RA with F-Spondin (1 ug/ml) and LAP (10 or 100 ng/ml) in combination.
FIG. 18. Blocking αvβ3 integrin inhibits the promaturation effect of F-spondin. Chondocyte cultures were transfected as previously and stimulated with RA for 3 days in the presence of IgG control, or αvβ3 blocking antibodies prior to assay for AP activity. Inhibition of αvβ3 led to a ˜50% suppression of F-spondin-induced AP activity but had no effect on baseline AP activity (vector ctrl).
FIGS. 23A, 23B and 23C. F-spondin regulation of chondrocyte maturation requires the TSR domain. (A) Schematic representation of F-spondin protein domains and plasmid constructs encoding either full length (FS1) or TSR domain truncated (FS6) cDNAs. (B) Relative AP activity of FS or pcDNA3 control transfected cultures after 5 days treatment. (C) Relative AP activity following inhibition of F-spondin protein domains. Upper sternal chondrocytes were stimulated with 0, 10, 35 or 100 nM retinoic acid (RA) for 5 days in culture. […]
We next determined that the pro-maturation effect of F-spondin is not inhibited following neutralization of TGF-β activity by coculture with Latency Associated Peptide (LAP) (R&D Systems, Cat No 246-LP/CF). […] AP activity was determined in chick chondrocyte cultures by ELISA following RA stimulation for 3 days. […]

For assay [3], the system named is OA cartilage explant cultures. The conditions noted are these: cited from earlier work.

B1: F-spondin: 110 kDa, secreted, heparin-binding extracellular matrix glycoprotein; used as recombinant protein (R&D systems) or transfected-cell supernatant (protein, UniProt Q9HCB6 29-807, looked up)
Spondin-1: FSDETLDKVPKSEGYCSRILRAQGTRREGYTEFSLRVEGDPDFYKPGTSYRVTLSAAPPSYFRGFTLIALRENREGDKEEDHAGTFQIIDEEETQFMSNCPVAVTESTPRRRTRIQVFWIAPPAGTGCVILKASIVQKRIIYFQDEGSLTKKLCEQDSTFDGVTDKPILDCCACGTAKYRLTFYGNWSEKTHPKDYPRRANHWSAIIGGSHSKNYVLWEYGGYASEGVKQVAELGSPVKMEEEIRQQSDEVLTVIKAKAQWPAWQPLNVRAAPSAEFSVDRTRHLMSFLTMMGPSPDWNVGLSAEDLCTKECGWVQKVVQDLIPWDAGTDSGVTYESPNKPTIPQEKIRPLTSLDHPQSPFYDPEGGSITQVARVVIERIARKGEQCNIVPDNVDDIVADLAPEEKDEDDTPETCIYSNWSPWSACSSSTCDKGKRMRQRMLKAQLDLSVPCPDTQDFQPCMGPGCSDEDGSTCTMSEWITWSPCSISCGMGMRSRERYVKQFPEDGSVCTLPTEETEKCTVNEECSPSSCLMTEWGEWDECSATCGMGMKKRHRMIKMNPADGSMCKAETSQAEKCMMPECHTIPCLLSPWSEWSDCSVTCGKGMRTRQRMLKSLAELGDCNEDLEQVEKCMLPECPIDCELTEWSQWSECNKSCGKGHVIRTRMIQMEPQFGGAPCPETVQRKKCRIRKCLRNPSIQKLRWREARESRRSEQLKEESEGEQFPGCRMRPWTAWSECTKLCGGGIQERYMTVKKRFKSSQFTSCKDKKEIRACNVHPC
B1: in assay [1] (chondrocytes), the COX-2 gene/gene product entry is given as “induced” and the mPGES gene/gene product entry was “induced”. Besides, in assay [1] (preliminary, monolayer culture), the AGC1 regulation entry is on record as “AGC1*”, the BMP-2 regulation entry was “BMP-2*”, the COL2A1 regulation result is reported as “COL2A1*” and the IL-1β regulation entry is listed as “IL-1β**”. In addition, in assay [1] (preliminary, monolayer culture), the IL-6 regulation entry is recorded as “IL-6*”, the IL-8 regulation result is reported as “IL-8*”, the MMP-1 regulation result is “MMP-1**” and the MMP-13 regulation entry was “MMP-13*”. Moreover, in assay [1] (preliminary, monolayer culture), the PGE2 regulation result is reported as “PGE2*”, the TGF-β regulation result is given as “TGF-β*” and the TNFα regulation result is listed as “TNFα**”. For the same molecule, in assay [2], the AP activity result was “increase”. In addition, in assay [3], the MMP-13 secretion entry is “increase” and the “type II collagen degradation” value is recorded as “increase”.
